Measured values: the supplement of paper PMC5998384

Legend:
HeLa Kyoto [1] = experiment: solubility in G1/S (NP-40 vs SDS abundance) (log2 ratio); higher = more soluble; details: cell cycle stage: G1/S
HeLa Kyoto [2] = experiment: melting temperature (median over replicates), in situ; higher = more thermally stable
HeLa Kyoto [3] = experiment: solubility change mitosis vs G1/S (difference of NP-40 vs SDS log2 ratios) (log2 ratio difference); higher = more soluble in mitosis
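For melting temperature (median over replicates), in situ in this document: HeLa Kyoto cells synchronized by double thymidine or nocodazole block, proteins quantified by TMT10plex mass spectrometry, three independent biological replicates.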
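For solubility change mitosis vs G1/S (difference of NP-40 vs SDS log2 ratios) in this document: synchronized HeLa Kyoto cells (double thymidine block for G1/S, nocodazole release for mitosis), protein amounts in NP-40 versus SDS lysates quantified by mass spectrometry, three biological replicates.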
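For solubility in G1/S (NP-40 vs SDS abundance) in this document: HeLa Kyoto cells arrested at G1/S by double thymidine block, proteins quantified by TMT10plex mass spectrometry in mild NP-40 versus SDS extracts, three biological replicates.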

DNAJC15, sequence (chain, as listed by the source): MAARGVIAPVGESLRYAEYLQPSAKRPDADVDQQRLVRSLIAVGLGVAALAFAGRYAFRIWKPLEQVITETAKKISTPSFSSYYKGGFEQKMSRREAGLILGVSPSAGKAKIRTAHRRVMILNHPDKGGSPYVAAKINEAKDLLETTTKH
ZNF593, sequence (chain, as listed by the source): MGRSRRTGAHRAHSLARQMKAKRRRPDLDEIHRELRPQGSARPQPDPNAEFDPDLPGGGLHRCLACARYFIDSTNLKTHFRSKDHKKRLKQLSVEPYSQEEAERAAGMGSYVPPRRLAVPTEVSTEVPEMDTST

Substance	solubility in G1/S (log2) (HeLa Kyoto [1])	melting temperature (HeLa Kyoto [2]; cell cycle stage: G1/S)	melting temperature (HeLa Kyoto [2]; cell cycle stage: mitosis)	solubility change mitosis (log2) (HeLa Kyoto [3])
MGDEKDSWKVKTLDEILQEKKRRKEQEEKAEIKRLKNSDDRDSKRDSLEEGELRDHRMEITIRNSPYRREDSMEDRGEEDDSLAIKPPQQMSRKEKAHHRKDEKRKEKRRHRSHSAEGGKHARVKEKEREHERRKRHREEQDKARREWERQKRREMAREHSRRERDRLEQLERKRERERKMREQQKEQREQKERERRAEERRKEREARREVSAHHRTMREDYSDKVKASHWSRSPPRPPRERFELGDGRKPGEARPAPAQKPAQLKEEKMEERDLLSDLQDISDSERKTSSAESSSAESGSGSEEEEEEEEEEEEEGSTSEESEEEEEEEEEEEEETGSNSEEASEQSAEEVSEEEMSEDEERENENHLLVVPESRFDRDSGESEEAEEEVGEGTPQSSALTEGDYVPDSPALSPIELKQELPKYLPALQGCRSVEEFQCLNRIEEGTYGVVYRAKDKKTDEIVALKRLKMEKEKEGFPITSLREINTILKAQHPNIVTVREIVVGSNMDKIYIVMNYVEHDLKSLMETMKQPFLPGEVKTLMIQLLRGVKHLHDNWILHRDLKTSNLLLSHAGILKVGDFGLAREYGSPLKAYTPVVVTLWYRAPELLLGAKEYSTAVDMWSVGCIFGELLTQKPLFPGKSEIDQINKVFKDLGTPSEKIWPGYSELPAVKKMTFSEHPYNNLRKRFGALLSDQGFDLMNKFLTYFPGRRISAEDGLKHEYFRETPLPIDPSMFPTWPAKSEQQRVKRGTSPRPPEGGLGYSQLGDDDLKETGFHLTTTNQGASAAGPGFSLKF [CDC2L1]	-0.672	46.5 °C	50.3 °C	0.114
MSVFGKLFGAGGGKAGKGGPTPQEAIQRLRDTEEMLSKKQEFLEKKIEQELTAAKKHGTKNKRAALQALKRKKRYEKQLAQIDGTLSTIEFQREALENANTNTEVLKNMGYAAKAMKAAHDNMDIDKVDELMQDIADQQELAEEISTAISKPVGFGEEFDEDELMAELEELEQEELDKNLLEISGPETVPLPNVPSIALPSKPAKKKEEEDDDMKELENWAGSM [CHMP4B]	0.507	55 °C	52.5 °C	0.775
MGREFGNLTRMRHVISYSLSPFEQRAYPHVFTKGIPNVLRRIRESFFRVVPQFVVFYLIYTWGTEEFERSKRKNPAAYENDK [UQCRQ]	-0.497	53.1 °C	51.8 °C	-0.186
MLFKLLQRQTYTCLSHRYGLYVCFLGVVVTIVSAFQFGEVVLEWSRDQYHVLFDSYRDNIAGKSFQNRLCLPMPIDVVYTWVNGTDLELLKELQQVREQMEEEQKAMREILGKNTTEPTKKSEKQLECLLTHCIKVPMLVLDPALPANITLKDLPSLYPSFHSASDIFNVAKPKNPSTNVSVVVFDSTKDVEDAHSGLLKGNSRQTVWRGYLTTDKEVPGLVLMQDLAFLSGFPPTFKETNQLKTKLPENLSSKVKLLQLYSEASVALLKLNNPKDFQELNKQTKKNMTIDGKELTISPAYLLWDLSAISQSKQDEDISASRFEDNEELRYSLRSIERHAPWVRNIFIVTNGQIPSWLNLDNPRVTIVTHQDVFRNLSHLPTFSSPAIESHIHRIEGLSQKFIYLNDDVMFGKDVWPDDFYSHSKGQKVYLTWPVPNCAEGCPGSWIKDGYCDKACNNSACDWDGGDCSGNSGGSRYIAGGGGTGSIGVGQPWQFGGGINSVSYCNQGCANSWLADKFCDQACNVLSCGFDAGDCGQDHFHELYKVILLPNQTHYIIPKGECLPYFSFAEVAKRGVEGAYSDNPIIRHASIANKWKTIHLIMHSGMNATTIHFNLTFQNTNDEEFKMQITVEVDTREGPKLNSTAQKGYENLVSPITLLPEAEILFEDIPKEKRFPKFKRHDVNSTRRAQEEVKIPLVNISLLPKDAQLSLNTLDLQLEHGDITLKGYNLSKSALLRSFLMNSQHAKIKNQAIITDETNDSLVAPQEKQVHKSILPNSLGVSERLQRLTFPAVSVKVNGHDQGQNPPLDLETTARFRVETHTQKTIGGNVTKEKPPSLIVPLESQMTKEKKITGKEKENSRMEENAENHIGVTEVLLGRKLQHYTDSYLGFLPWEKKKYFQDLLDEEESLKTQLAYFTDSKNTGRQLKDTFADSLRYVNKILNSKFGFTSRKVPAHMPHMIDRIVMQELQDMFPEEFDKTSFHKVRHSEDMQFAFSYFYYLMSAVQPLNISQVFDEVDTDQSGVLSDREIRTLATRIHELPLSLQDLTGLEHMLINCSKMLPADITQLNNIPPTQESYYDPNLPPVTKSLVTNCKPVTDKIHKAYKDKNKYRFEIMGEEEIAFKMIRTNVSHVVGQLDDIRKNPRKFVCLNDNIDHNHKDAQTVKAVLRDFYESMFPIPSQFELPREYRNRFLHMHELQEWRAYRDKLKFWTHCVLATLIMFTIFSFFAEQLIALKRKIFPRRRIHKEASPNRIRV [GNPTAB]	0.263	53.9 °C	54.1 °C	-0.00222
DNAJC15	0.11	51 °C	51.2 °C	-0.164
MGSTVPRSASVLLLLLLLRRAEQPCGAELTFELPDNAKQCFHEEVEQGVKFSLDYQVITGGHYDVDCYVEDPQGNTIYRETKKQYDSFTYRAEVKGVYQFCFSNEFSTFSHKTVYFDFQVGDEPPILPDMGNRVTALTQMESACVTIHEALKTVIDSQTHYRLREAQDRARAEDLNSRVSYWSVGETIALFVVSFSQVLLLKSFFTEKRPISRAVHS [TMED3]	-0.0742	53.4 °C	53.4 °C	-0.000936
MAATMKKAAAEDVNVTFEDQQKINKFARNTSRITELKEEIEVKKKQLQNLEDACDDIMLADDDCLMIPYQIGDVFISHSQEETQEMLEEAKKNLQEEIDALESRVESIQRVLADLKVQLYAKFGSNINLEADES [PFDN4]	-0.219	55.5 °C	53.5 °C	0.523
MRMSDTVTVKDETATMKDLEAEVKDTTRVENLIKSENYGKILVEKNEHCIENNIDLQRPLQSFGQTGKRSKSSSKLKLVRSLAVCEESPPPPAPEISQENQEKIQIQLTQSFEKEEKPSKDEAEKEKASDKLPRKMLSRDSSQEYTDSTGIDLHEFLVNTLKNNPRDRMMLLKLEQEILDFIGNNESPRKKFPPMTSYHRMLLHRVAAYFGLDHNVDQSGKSVIVNKTSNTRIPDQKFNEHIKDDKGEDFQKRYILKRDNSSFDKDDNQMRIRLKDDRRSKSIEEREEEYQRARDRIFSQDSLCSQENYIIDKRLQDEDASSTQQRRQIFRVNKDASGRSTNSHQSSTENELKYSEPRPWSSTDSDSSLRNLKPAVTKASSFSGISVLTRGDSSGSSKSIGRLSKTGSESSGSVGSSTGSLSHIQQPLPGTALSQSSHGAPVVYPTVSTHSSLSFDGGLNGQVASPSTSFFLLPLEAAGIPPGSILINPQTGQPFINPDGSPVVYNPPMTQQPVRSQVPGPPQPPLPAPPQQPAANHIFSQDNLGSQFSHMSLARQPSADGSDPHAAMFQSTVVLQSPQQSGYIMTAAPPPHPPPPPPPPPPPPPLPPGQPVPTAGYPASGHPVSQPVLQQQGYIQQPSPQMPACYCAPGHYHSSQPQYRPVPSVHYNSHLNQPLPQPAQQTGYQVIPNQQQNYQGIVGVQQPQSQSLVSGQPNSIGNQIQGVVIPYTSVPTYQVSLPQGSQGIPHQTYQQPVMFPNQSNQGSMPTTGMPVYYSVIPPGQQNNLSSSVGYLQHPGSEQVQFPRTTSPCSSQQLQGHQCTAGPPPPPGGGMVMMQLSVPNNPQSCAHSPPQWKQNKYYCDHQRGQKCVEFSSVDNIVQHSPQLSSPIISPAQSPAPAQLSTLKTVRPSGPPLSIMPQFSRPFVPGQGDSRYPLLGQPLQYNPPAVLHGHIPNQQGQPGSRHGNRGRRQAKKAASTDLGAGETVVGKVLEITELPDGITRMEAEKLFGELFKIGAKIRWLRDPQSQPRRHPLCCGSGDNTANPERSKPSDLASTYTVLATFPSISAAQNALKKQINSVNKFKLRTSKKHYDFHILERASSQ [R3HDM1]	0.189	52.3 °C	50.9 °C	-0.239
ZNF593	-0.278	57.9 °C	51.7 °C	1.09
TOPBP1	-0.153	46.7 °C	49.1 °C	-0.0346
MGNTLTCCVSPNASPKLGRRAGSAELYCASDIYEAVSGDAVAVAPAVVEPAELDFGEGEGHHLQHISDREMPEDLALESNPSDHPRASTIFLSKSQTDVREKRKSNHLNHVSPGQLTKKYSSCSTIFLDDSTVSQPNLRTTVKCVTLAIYYHIKNRDANRSLDIFDERSHPLTREKVPEEYFKHDPEHKFIYRFVRTLFSAAQLTAECAIVTLVYLERLLTYAEIDICPTNWKRIVLGAILLASKVWDDQAVWNVDYCQILKDITVEDMNEMERHFLELLQFNINVPASVYAKYYFDLRSLADDNNLNFLFAPLSKERAQNLEAISRLCEDKDLCRAAMRRSFSADNFIGIQRSKAILS [CCNYL1]	-0.167	48.9 °C	49.2 °C	-0.0896
MPKTMHFLFRFIVFFYLWGLFTAQRQKKEESTEEVKIEVLHRPENCSKTSKKGDLLNAHYDGYLAKDGSKFYCSRTQNEGHPKWFVLGVGQVIKGLDIAMTDMCPGEKRKVVIPPSFAYGKEGYAEGKIPPDATLIFEIELYAVTKGPRSIETFKQIDMDNDRQLSKAEINLYLQREFEKDEKPRDKSYQDAVLEDIFKKNDHDGDGFISPKEYNVYQHDEL [FKBP7]	0.654	55 °C	55.8 °C	0.0889
